Test [1] deals with HLA-B*40:01. Put plainly: IEDB peptide-MHC binding, purified MHC/competitive/fluorescence; filed as Kd, often an IC50 or EC50 that approximates it; ≥ and ≤ were set here for values at or beyond the usual limits of such assays.
Test [2] concerns the target HLA-B*15:01. The test is described as above.
For the next test, the target named is HLA-C*14:02. Put plainly: IEDB peptide-MHC binding, purified MHC/direct/fluorescence; filed as Kd, often an IC50 or EC50 that approximates it; ≥ and ≤ were set here for values at or beyond the usual limits of such assays. The following applies: source organism: Salmonella enterica subsp. enterica serovar Typhi str. CT18.
The target of a further test is HLA-B*15:09. The test is described as above.
Test [3] addresses HLA-B*39:01. The test is described as above.
The next test has as its target HLA-A*02:03. Put plainly: IEDB peptide-MHC binding, purified MHC/competitive/fluorescence; filed as Kd, often an IC50 or EC50 that approximates it; ≥ and ≤ were set here for values at or beyond the usual limits of such assays. The note with it: source organism: Francisella tularensis subsp. tularensis FSC198.
A further test has as its target HLA-A*26:02. The description is as above. The following applies: source organism: Francisella tularensis subsp. tularensis FSC198.
Test [4] deals with HLA-B*08:01. The test is described as above. The note with it: source organism: Francisella tularensis subsp. tularensis FSC198.
Test [5] addresses HLA-A*68:02. Put plainly: IEDB peptide-MHC binding, purified MHC/direct/fluorescence; filed as Kd, often an IC50 or EC50 that approximates it; ≥ and ≤ were set here for values at or beyond the usual limits of such assays. The following applies: source organism: Francisella tularensis subsp. holarctica LVS.
The target of a further test is HLA-B*48:01. The description is as above. The note with it: source organism: Francisella tularensis subsp. holarctica LVS.
Another test has as its target HLA-B*15:17. The test is described as above.
In a further test the target is HLA-B*58:01. The test is described as above.
The target of the next test is HLA-B*07:02. The test is described as above.
The target of a further test is HLA-A*69:01. Described as above.
A further test deals with HLA-B*27:05. The test is described as above.
The next test deals with HLA-B*18:01. The description is as above.
A further test has as its target HLA-A*01:01. The test is described as above.
A further test has as its target HLA-A*11:01. The description is as above.
Another test has as its target HLA-A*31:01. Described as above.
In the next test the target is HLA-B*57:01. The description is as above.
Another test has as its target HLA-B*44:02. The description is as above. The following applies: source organism: Vibrio parahaemolyticus.
Test [6] concerns the target HLA-B*40:01. The test is described as above. The following applies: source organism: Vibrio parahaemolyticus.
Test [7] deals with HLA-A*02:01. The description is as above.
A further test concerns the target HLA-A*26:01. The description is as above.
The target in test [8] is HLA-B*15:01. The test is described as above.
The next test concerns the target HLA-B*35:01. The description is as above. The note with it: source organism: Vibrio parahaemolyticus.
Another test addresses HLA-A*03:01. Described as above.
The target of test [9] is HLA-B*08:01. The test is described as above.
In the next test the target is HLA-A*02:12. Kind of test: IEDB peptide-MHC binding, purified MHC/competitive/fluorescence; filed as Kd, often an IC50 or EC50 that approximates it; ≥ and ≤ were set here for values at or beyond the usual limits of such assays. The following applies: source organism: Haemophilus influenzae 22.1-21.
Another test deals with HLA-A*02:11. The description is as above. The following applies: source organism: Haemophilus influenzae 22.1-21.
The target of test [10] is HLA-A*02:01. The test is described as above. The note with it: source organism: Yersinia pestis Nepal516.
In test [11] the target is HLA-B*39:01. The test is described as above. The following applies: source organism: Yersinia pestis Nepal516.
The next test has as its target HLA-A*30:01. Put plainly: IEDB peptide-MHC binding, purified MHC/direct/fluorescence; filed as Kd, often an IC50 or EC50 that approximates it; ≥ and ≤ were set here for values at or beyond the usual limits of such assays. The following applies: source organism: Vibrio parahaemolyticus.
The target in test [12] is HLA-A*68:02. Kind of test: IEDB peptide-MHC binding, purified MHC/competitive/fluorescence; filed as Kd, often an IC50 or EC50 that approximates it; ≥ and ≤ were set here for values at or beyond the usual limits of such assays. The following applies: source organism: Bacillus anthracis str. A2012.
The target of another test is HLA-A*24:02. Kind of test: IEDB peptide-MHC binding, purified MHC/direct/fluorescence; filed as Kd, often an IC50 or EC50 that approximates it; ≥ and ≤ were set here for values at or beyond the usual limits of such assays. The following applies: source organism: Bacillus anthracis.
Another test deals with HLA-A*24:03. The description is as above. The following applies: source organism: Bacillus anthracis.
In a further test the target is HLA-A*23:01. The description is as above. The note with it: source organism: Bacillus anthracis.
[13] abbreviates: source organism: Escherichia coli B171.
The mark [14] stands for this setting: source organism: Francisella tularensis subsp. tularensis FSC033.
The mark [15] stands for this setting: source organism: Francisella tularensis subsp. holarctica LVS.
Where [16] appears, read: source organism: Vibrio parahaemolyticus.
[17] abbreviates: source organism: Haemophilus influenzae.
Setting [18] is: source organism: Yersinia pestis Nepal516.
The mark [19] stands for this setting: source organism: Bacillus anthracis str. A0465.
Setting [20] is: source organism: Bacillus anthracis.

Turning to AELRLVHEL, the Kd (in general, the concentration at which binding is half-saturated) with HLA-B*40:01 [1] (setting [13]) was 0.0069 µM; in the test with HLA-B*15:01 [2] (setting [13]), at least 20 µM.

AETLMAQPF: the dissociation constant Kd with HLA-B*40:01 [1] (source organism: Salmonella enterica subsp. enterica serovar Typhi) worked out at 0.0122 µM; with HLA-C*14:02 it was 2.31 µM.

EHIPTMKIF: the Kd with HLA-B*15:09 (source organism: Variola virus) came to 0.304 µM; with HLA-B*39:01 [3] (source organism: Camelpox virus M-96), 1.34 µM.

For the sequence HHSLTHHQL, in the test with HLA-B*15:09 (source organism: Escherichia coli O157:H7 str. EC869), the Kd came out at 0.002 µM.

KRINSLIKY: the Kd in the test with HLA-A*02:03 was 2.47 µM; in the test with HLA-A*26:02, at least 20 µM; with HLA-B*15:01 [2] (source organism: Francisella tularensis subsp. tularensis FSC198) it was 3 µM; with HLA-B*08:01 [4] it was at least 20 µM; in the test with HLA-A*68:02 [5] it was at least 20 µM; with HLA-B*48:01, at least 20 µM. Also, the dissociation constant (Kd) is at least 20 µM in the test with HLA-B*15:09 (setting [14]); at least 20 µM with HLA-B*15:17 (setting [15]); at least 20 µM with HLA-B*58:01 (setting [15]); at least 20 µM with HLA-B*07:02 (setting [15]); at least 20 µM with HLA-A*69:01 (setting [15]); 0.132 µM with HLA-B*27:05 (setting [15]). Further, the dissociation constant (Kd) in the test with HLA-B*18:01 (setting [15]), with HLA-A*01:01 (setting [15]), in the test with HLA-B*39:01 [3] (setting [14]), with HLA-A*11:01 (setting [15]), with HLA-A*31:01 (setting [15]) and with HLA-B*57:01 (setting [15]) was at least 20 µM throughout.

Consider NSDPEFNVL, for which the dissociation constant (Kd) with HLA-B*44:02 was at least 20 µM; with HLA-B*58:01 (setting [16]), at least 20 µM; in the test with HLA-B*07:02 (setting [16]), at least 20 µM; with HLA-A*69:01 (setting [16]), at least 20 µM; with HLA-B*40:01 [6], 5.06 µM; in the test with HLA-B*27:05 (setting [16]), at least 20 µM. Moreover, the equilibrium dissociation constant (Kd) in the test with HLA-A*02:01 [7] (setting [16]) was at least 20 µM; in the test with HLA-A*26:01 (setting [16]), at least 20 µM; with HLA-B*15:01 [8] (setting [16]), at least 20 µM; with HLA-A*01:01 (setting [16]) it was 0.387 µM; in the test with HLA-B*35:01 it was 0.208 µM; with HLA-A*03:01 (setting [16]) it was at least 20 µM. In addition, the equilibrium dissociation constant (Kd) in the test with HLA-B*08:01 [9] (setting [16]) is at least 20 µM; with HLA-B*39:01 [3] (source organism: Vibrio parahaemolyticus AQ3810), 0.013 µM; with HLA-A*11:01 (setting [16]), at least 20 µM; with HLA-A*31:01 (setting [16]), at least 20 µM.

For RFLEDYFGV, the Kd stood at 0.0443 µM in the test with HLA-A*02:12; 0.0041 µM in the test with HLA-A*02:11; 0.547 µM in the test with HLA-A*69:01 (setting [17]); 0.141 µM with HLA-A*02:01 [7] (setting [17]); 0.558 µM in the test with HLA-A*31:01 (setting [17]).

For the sequence SQMGLSCAL, the dissociation constant (Kd) amounted to 0.567 µM with HLA-B*40:01 [1] (setting [18]), 0.0046 µM with HLA-A*02:01 [10], 0.0976 µM in the test with HLA-B*15:01 [2] (setting [18]) and 0.0035 µM with HLA-B*39:01 [11].

Consider VMETENALF, for which the Kd was at least 20 µM with HLA-B*44:02; at least 44.8 µM in the test with HLA-A*30:01; at least 20 µM with HLA-A*69:01 (setting [16]); at least 20 µM with HLA-B*40:01 [6]; at least 20 µM in the test with HLA-B*27:05 (setting [16]); at least 20 µM with HLA-A*02:01 [7] (setting [16]). The Kd was at least 20 µM in the test with HLA-A*26:01 (setting [16]); 0.301 µM with HLA-B*15:01 [8] (setting [16]); 5.02 µM with HLA-A*01:01 (setting [16]); 0.427 µM with HLA-B*35:01; at least 20 µM with HLA-A*03:01 (setting [16]); at least 20 µM with HLA-B*08:01 [9] (setting [16]). The Kd in the test with HLA-A*11:01 (setting [16]) and with HLA-A*31:01 (setting [16]) was at least 20 µM in each case.

Consider YFENSDLNL, for which the Kd was at least 20 µM with HLA-A*68:02 [12]; 7.5 µM with HLA-A*24:02; at least 20 µM in the test with HLA-B*15:09 (setting [19]); 0.13 µM in the test with HLA-A*24:03; at least 20 µM with HLA-B*15:17 (setting [20]); at least 20 µM with HLA-B*58:01 (setting [20]). The Kd with HLA-B*07:02 (setting [20]) was at least 20 µM; with HLA-B*27:05 (setting [20]) it was at least 20 µM; with HLA-A*02:01 [7] (setting [20]) it was at least 20 µM; with HLA-B*18:01 (setting [20]), at least 20 µM; with HLA-A*26:01 (setting [19]), at least 20 µM; in the test with HLA-B*15:01 [8] (setting [20]) it was at least 5 µM. In addition, the Kd is at least 20 µM with HLA-A*01:01 (setting [20]); 0.65 µM with HLA-A*23:01; at least 20 µM with HLA-A*03:01 (setting [20]); at least 20 µM with HLA-B*08:01 [9] (setting [19]); at least 20 µM with HLA-B*39:01 [3] (setting [19]); at least 20 µM with HLA-A*11:01 (setting [20]). The Kd with HLA-A*31:01 (setting [20]) and in the test with HLA-B*57:01 (setting [20]) was at least 20 µM in each case.

The values above are taken from the Immune Epitope Database (IEDB).
